Results reported in IntAct's records for PubMed 17675380.

B1: Enterobactin synthase component B (Escherichia coli (strain K12)), P0ADI4 (parent)
chain: MAIPKLQAYALPESHDIPQNKVDWAFEPQRAALLIHDMQDYFVSFWGENCPMMEQVIANIAALRDYCKQHNIPVYYTAQPKEQSDEDRALLNDMWGPGLTRSPEQQKVVDRLTPDADDTVLVKWRYSAFHRSPLEQMLKESGRNQLIITGVYAHIGCMTTATDAFMRDIKPFMVADALADFSRDEHLMSLKYVAGRSGRVVMTEELLPAPIPASKAALREVILPLLDESDEPFDDDNLIDYGLDSVRMMALAARWRKVHGDIDFVMLAKNPTIDAWWKLLSREVK
partner: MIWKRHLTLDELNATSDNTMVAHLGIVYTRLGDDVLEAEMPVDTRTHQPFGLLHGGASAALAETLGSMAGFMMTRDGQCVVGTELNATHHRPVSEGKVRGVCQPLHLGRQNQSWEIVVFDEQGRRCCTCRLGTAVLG

Variants of: B1
Conditions: with enth_ecoli entH

Row | Variant | effect of a mutation on the interaction
1 | S245A | decreasing interaction strength
